Sequences and labels used below:
B1: G02 humanized IgG1-type antibody (native structure) (antibody, V domains shown)
VH: EVQLVESGGGLVQPGGSLRLSCTASGFSLSSNAMSWVRQAPGKGLEWIGSIGRSGSTYNANWAKGRFTISRDNSKNTVYLQMNSLRAEDTAVYFCAKFTGGVSGGYFSVWGPGTLVTVSS
VL: DIQMTQSPSTLSASVGDRVIINCQASQSVYNNNLLSWYQQKPGKAPKLLIYAASNLASGVPSRFSGSGSGAEFTLTISSLQPDDFATYYCQGYYGGAICAFGQGTKLTVL
B2: G05 humanized IgG1-type antibody (native structure) (antibody, V domains shown)
VH: EVQLVESGGGLVQPGGSLRLSCAASGFSLTDNGITWVRQAPGKGLEWIGIMTTGGSTYYAGWAKGRFTISRDNSKNTLYLQMNSLRAEDTATYFCTRGYGIHGLWGPGTLVTVSS
VL: DIQMTQSPSSLSASVGDRVTITCQASESISKFLSWYQQKPGKVPKLLIYRASTLASGVPSRFSGSGSGTDFTLTISSLQPEDVATYYCQGYDGSSTTTNYESAFGQGTKLTVL
notes: also called G05-mAb
B3: G09 humanized IgG1-type antibody (native structure) (antibody, V domains shown)
VH: EVQLVESGGGLVQPGGSLRLSCAASGFSLSNNGITWVRQAPGKGLEWIGIITTTGSAYYAGWAKGRFTISRDNSKNTLYLQMNSLRAEDTAVYYCARGYGIHGLWGPGTLVTVSS
VL: DIQMTQSPSSLSASVGDRVTITCQASESISNYLSWYQQKPGKVPKLLIYRASTLASGVPSRFSGSGSGTDFTLTISSLQPEDVATYYCQGYDGSASSSNYESAFGQGTKLTVL
notes: also called G09-mAb
B4: G07 humanized IgG1-type antibody (native structure) (antibody, V domains shown)
VH: EVQLVESGGGLVQPGGSLRLSCAASGFSLTDNGITWVRQAPGKGLEWIGIMTTGGTTYYAGWAKGRFTISRDNSKNTLYLQMNSLRAEDTAVYYCARGYGIHGLWGPGTLVTVSS
VL: DIQMTQSPSSLSASVGDRVTITCQASESVSKFLSWYQQKPGKVPKLLIYRASTLASGVPSRFSGSGSGTDFTLTISSLQPEDVATYYCQGYDGSSTTTNYESAFGQGTKLTVL
notes: also called G07-mAb
B5: G09 scFv-hFc humanized IgG1 format antibody (Fc fusion)
chain: DIQMTQSPSSLSASVGDRVTITCQASESISNYLSWYQQKPGKVPKLLIYRASTLASGVPSRFSGSGSGTDFTLTISSLQPEDVATYYCQGYDGSASSSNYESAFGQGTKLTVLGGGGSGGGGSGGGGSEVQLVESGGGLVQPGGSLRLSCAASGFSLSNNGITWVRQAPGKGLEWIGIITTTGSAYYAGWAKGRFTISRDNSKNTLYLQMNSLRAEDTAVYYCARGYGIHGLWGPGTLVTVSS
notes: not shown: human IgG1 Fc (hFc) of the scFv-hFc vector
B6: G02 scFv-hFc humanized IgG1 format antibody (Fc fusion)
chain: DIQMTQSPSTLSASVGDRVIINCQASQSVYNNNLLSWYQQKPGKAPKLLIYAASNLASGVPSRFSGSGSGAEFTLTISSLQPDDFATYYCQGYYGGAICAFGQGTKLTVLGGGGSGGGGSGGGGSEVQLVESGGGLVQPGGSLRLSCTASGFSLSSNAMSWVRQAPGKGLEWIGSIGRSGSTYNANWAKGRFTISRDNSKNTVYLQMNSLRAEDTAVYFCAKFTGGVSGGYFSVWGPGTLVTVSS
notes: as for B5
B7: G05 scFv-hFc humanized IgG1 format antibody (Fc fusion)
chain: DIQMTQSPSSLSASVGDRVTITCQASESISKFLSWYQQKPGKVPKLLIYRASTLASGVPSRFSGSGSGTDFTLTISSLQPEDVATYYCQGYDGSSTTTNYESAFGQGTKLTVLGGGGSGGGGSGGGGSEVQLVESGGGLVQPGGSLRLSCAASGFSLTDNGITWVRQAPGKGLEWIGIMTTGGSTYYAGWAKGRFTISRDNSKNTLYLQMNSLRAEDTATYFCTRGYGIHGLWGPGTLVTVSS
notes: as for B5
B8: G07 scFv-hFc humanized IgG1 format antibody (Fc fusion)
chain: DIQMTQSPSSLSASVGDRVTITCQASESVSKFLSWYQQKPGKVPKLLIYRASTLASGVPSRFSGSGSGTDFTLTISSLQPEDVATYYCQGYDGSSTTTNYESAFGQGTKLTVLGGGGSGGGGSGGGGSEVQLVESGGGLVQPGGSLRLSCAASGFSLTDNGITWVRQAPGKGLEWIGIMTTGGTTYYAGWAKGRFTISRDNSKNTLYLQMNSLRAEDTAVYYCARGYGIHGLWGPGTLVTVSS
notes: as for B5
B9: G05 BsAb (GPRC5D&CD3 bispecific antibody) (bispecific antibody)
chain: DIQMTQSPSSLSASVGDRVTITCQASESISKFLSWYQQKPGKVPKLLIYRASTLASGVPSRFSGSGSGTDFTLTISSLQPEDVATYYCQGYDGSSTTTNYESAFGQGTKLTVLGGGGSGGGGSGGGGSEVQLVESGGGLVQPGGSLRLSCAASGFSLTDNGITWVRQAPGKGLEWIGIMTTGGSTYYAGWAKGRFTISRDNSKNTLYLQMNSLRAEDTATYFCTRGYGIHGLWGPGTLVTVSSDKTHTCPPCPAPELLGGPSVFLFPPKPKDTLMISRTPEVTCVVVDVSHEDPEVKFNWYVDGVEVHNAKTKPREEQYNSTYRVVSVLTVLHQDWLNGKEYKCKVSNKALPAPIEKTISKAKGQPREPQVCTLPPSREEMTKNQVSLSCAVKGFYPSDIAVEWESNGQPENNYKTTPPVLDSDGSFFLVSKLTVDKSRWQQGNVFSCSVMHEALHNHYTQKSLSLSPGK
heavy: not shown
light: QAVVTQEPSLTVSPGGTVTLTCGSSTGAVTTSNYANWVQEKPGQAFRGLIGGTNKRAPGTPARFSGSLLGGKAALTLSGAQPEDEAEYYCALWYSNLWVFGGGTKLTVL
notes: not shown: human kappa constant region of vector pTT5-hKappa
B10: G09 BsAb (GPRC5D&CD3 bispecific antibody) (bispecific antibody)
chain: DIQMTQSPSSLSASVGDRVTITCQASESISNYLSWYQQKPGKVPKLLIYRASTLASGVPSRFSGSGSGTDFTLTISSLQPEDVATYYCQGYDGSASSSNYESAFGQGTKLTVLGGGGSGGGGSGGGGSEVQLVESGGGLVQPGGSLRLSCAASGFSLSNNGITWVRQAPGKGLEWIGIITTTGSAYYAGWAKGRFTISRDNSKNTLYLQMNSLRAEDTAVYYCARGYGIHGLWGPGTLVTVSSDKTHTCPPCPAPELLGGPSVFLFPPKPKDTLMISRTPEVTCVVVDVSHEDPEVKFNWYVDGVEVHNAKTKPREEQYNSTYRVVSVLTVLHQDWLNGKEYKCKVSNKALPAPIEKTISKAKGQPREPQVCTLPPSREEMTKNQVSLSCAVKGFYPSDIAVEWESNGQPENNYKTTPPVLDSDGSFFLVSKLTVDKSRWQQGNVFSCSVMHEALHNHYTQKSLSLSPGK
heavy: not shown
light: QAVVTQEPSLTVSPGGTVTLTCGSSTGAVTTSNYANWVQEKPGQAFRGLIGGTNKRAPGTPARFSGSLLGGKAALTLSGAQPEDEAEYYCALWYSNLWVFGGGTKLTVL
notes: as for B9
B11: G00 BsAb (GPRC5D&CD3 bispecific antibody with the control scFv G00) (bispecific antibody)
chain: QSALTQPASVSGSPGQSITISCTGTSSDVGGYNYVSWYQQHPGKAPKLMIYDVSKRPSGVSNRFSGSKSGNTASLTISGLQAEDEADYYCSSYTRSSTEVFGGGTKLTVLGSRGGGGSGGGGSGGGGSLEMAEVQLVQSGAEVKKPGASVKVSCKASGYTFTSYYMHWVRQAPGQGLEWMGIINPSGGSTSYAQKFQGRVTMTRDTSTSTVYMELSSLRSEDTAVYYCARGGSKKWSGEKWRRENFDYWGQGTLVTVSSDKTHTCPPCPAPELLGGPSVFLFPPKPKDTLMISRTPEVTCVVVDVSHEDPEVKFNWYVDGVEVHNAKTKPREEQYNSTYRVVSVLTVLHQDWLNGKEYKCKVSNKALPAPIEKTISKAKGQPREPQVCTLPPSREEMTKNQVSLSCAVKGFYPSDIAVEWESNGQPENNYKTTPPVLDSDGSFFLVSKLTVDKSRWQQGNVFSCSVMHEALHNHYTQKSLSLSPGK
heavy: not shown
light: QAVVTQEPSLTVSPGGTVTLTCGSSTGAVTTSNYANWVQEKPGQAFRGLIGGTNKRAPGTPARFSGSLLGGKAALTLSGAQPEDEAEYYCALWYSNLWVFGGGTKLTVL
notes: also called GOO; not shown: human kappa constant region of vector pTT5-hKappa
B12: G07 BsAb (GPRC5D&CD3 bispecific antibody) (bispecific antibody)
chain: DIQMTQSPSSLSASVGDRVTITCQASESVSKFLSWYQQKPGKVPKLLIYRASTLASGVPSRFSGSGSGTDFTLTISSLQPEDVATYYCQGYDGSSTTTNYESAFGQGTKLTVLGGGGSGGGGSGGGGSEVQLVESGGGLVQPGGSLRLSCAASGFSLTDNGITWVRQAPGKGLEWIGIMTTGGTTYYAGWAKGRFTISRDNSKNTLYLQMNSLRAEDTAVYYCARGYGIHGLWGPGTLVTVSSDKTHTCPPCPAPELLGGPSVFLFPPKPKDTLMISRTPEVTCVVVDVSHEDPEVKFNWYVDGVEVHNAKTKPREEQYNSTYRVVSVLTVLHQDWLNGKEYKCKVSNKALPAPIEKTISKAKGQPREPQVCTLPPSREEMTKNQVSLSCAVKGFYPSDIAVEWESNGQPENNYKTTPPVLDSDGSFFLVSKLTVDKSRWQQGNVFSCSVMHEALHNHYTQKSLSLSPGK
heavy: not shown
light: QAVVTQEPSLTVSPGGTVTLTCGSSTGAVTTSNYANWVQEKPGQAFRGLIGGTNKRAPGTPARFSGSLLGGKAALTLSGAQPEDEAEYYCALWYSNLWVFGGGTKLTVL
notes: as for B9
B13: control antibody G00 (MCARH109) as scFv-hFc IgG1 format antibody (Fc fusion)
chain: QSALTQPASVSGSPGQSITISCTGTSSDVGGYNYVSWYQQHPGKAPKLMIYDVSKRPSGVSNRFSGSKSGNTASLTISGLQAEDEADYYCSSYTRSSTEVFGGGTKLTVLGSRGGGGSGGGGSGGGGSLEMAEVQLVQSGAEVKKPGASVKVSCKASGYTFTSYYMHWVRQAPGQGLEWMGIINPSGGSTSYAQKFQGRVTMTRDTSTSTVYMELSSLRSEDTAVYYCARGGSKKWSGEKWRRENFDYWGQGTLVTVSS
notes: also called GOO; G00 scFv-hFc; not shown: human IgG1 Fc (hFc) of the scFv-hFc vector

The target of the first test is T1, human GPRC5D (human, UniProt Q9NZD1 1-345).
T1 construct: whole, on cells; Target always presented on cells (K562-GPRC5D, RPMI 8226, MM.1S, NCI-H929); also called GPRC5D protein
T1 sequence (Q9NZD1 whole entry): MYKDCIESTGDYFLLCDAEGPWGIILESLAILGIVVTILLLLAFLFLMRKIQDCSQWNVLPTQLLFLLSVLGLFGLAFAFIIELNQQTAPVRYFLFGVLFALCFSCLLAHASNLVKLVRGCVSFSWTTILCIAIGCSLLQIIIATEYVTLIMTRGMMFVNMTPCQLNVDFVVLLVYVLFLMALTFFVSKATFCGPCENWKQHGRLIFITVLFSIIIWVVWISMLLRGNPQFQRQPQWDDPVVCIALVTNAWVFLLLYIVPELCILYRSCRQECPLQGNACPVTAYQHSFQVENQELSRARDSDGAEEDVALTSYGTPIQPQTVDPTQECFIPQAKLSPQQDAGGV
The experiment in a line: flow cytometry, IgG1 antibody titrated on K562-GPRC5D cells.
As for B1, the binding result is listed as “binds”.
Same read-out and setting: next, B2: “binds”; B3: “binds”.
On the same count and under the same terms, the value for B4 was “binds”.

A further test addresses T1, human GPRC5D. The test is described as follows: flow cytometry, scFv-hFc at 20 ug/ml on MM.1S and NCI-H929 cells. A general note: A flow cytometer gives signals particle by particle.
Take B5: the binding result is on record as “binds”.
The same measure, in the same setting: the value for B6 was “binds”.
On the same count and under the same terms, the value for B7 was “binds”.
Still for that read-out and setting: the value for B8 was “binds”.

The target in a further test is T1, human GPRC5D. The test is described as follows: flow cytometry, bispecific antibody titrated on NCI-H929 cells, APC anti-human IgG. The method, then:
NCI-H929 and Jurkat cells were cultured for 48 hours, counted, and plated at a density of 2×10⁵ cells in 96-well V-bottom plates. The bispecific antibodies were serially diluted in PBS, with Talquetamab used as a positive control. The starting concentration was 100 μg/ml, followed by 1:5, 1:2, 1:2, 1:2, 1:2, 1:2, 1:2, 1:2 serial dilutions, resulting in […] for testing. 100 μl of proteins was added to each well with 200,000 cells. The BsAb was incubated with cells at 4° C. for 1 hour, washed three times with PBS and 0.2% FBS, and then APC-conjugated anti-human IgG mAb was added to each well. The cells were incubated with the secondary antibody for 1 hour at 4° C., washed three times again with PBS and 0.2% FBS, and then analyzed using flow cytometry.
As to B9, the binding result is “binds”.
The same measure, in the same setting: the value for B10 was “binds”; that for B11 was “binds”; that for B12 was “binds”.

For the next test, the target named is T1, human GPRC5D. The experiment in a line: flow cytometry, scFv-hFc titrated on K562-GPRC5D and RPMI 8226 cells; G00 told only as the weaker comparator.
As to B13, the binding result is “binds”.
